According to paper doi:10.1101/2025.11.18.689095 (bioRxiv, 2025):

T1: human Tom70 (residues 108–608) (human, UniProt O94826 108-608)
T1 construct: human Tom70 (translocase of outer mitochondria membrane 70), residues 108-608; N-terminal Avi tag, His6 tag, (GGS)5 linker and TEV site removed by TEV protease; also called hTom70; free Tom70; source: E. coli BL21 (DE3), purified (Ni-NTA, TEV cleavage, second Ni column, SEC); not shown: Avi, N-terminal, cleaved; His6, N-terminal, cleaved
T1 sequence: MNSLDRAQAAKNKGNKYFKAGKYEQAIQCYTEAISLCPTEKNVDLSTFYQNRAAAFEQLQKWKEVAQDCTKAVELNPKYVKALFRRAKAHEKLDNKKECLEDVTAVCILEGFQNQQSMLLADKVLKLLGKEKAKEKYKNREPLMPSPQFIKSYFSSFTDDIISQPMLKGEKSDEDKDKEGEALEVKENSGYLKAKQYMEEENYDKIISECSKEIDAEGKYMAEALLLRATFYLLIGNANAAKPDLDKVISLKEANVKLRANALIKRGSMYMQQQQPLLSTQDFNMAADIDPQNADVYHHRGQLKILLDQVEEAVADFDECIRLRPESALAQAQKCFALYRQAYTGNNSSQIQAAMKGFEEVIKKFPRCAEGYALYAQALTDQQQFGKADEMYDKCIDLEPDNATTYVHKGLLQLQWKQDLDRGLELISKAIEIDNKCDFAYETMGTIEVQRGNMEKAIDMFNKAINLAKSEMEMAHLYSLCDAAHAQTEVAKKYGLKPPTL

T2: ^19F-labeled Tom70 (5-fluoro-tryptophan, residues 108–608) (human, UniProt O94826 108-608, 5-fluoro-tryptophan at W169 and W523)
T2 construct: human Tom70, residues 108-608; also called ^19F Tom70; 5F-Trp Tom70; source: E. coli BL21(DE3) in M9 media supplemented with 5-fluoro-tryptophan, purified as unlabeled Tom70; not shown: Avi, N-terminal, cleaved; His6, N-terminal, cleaved
T2 sequence: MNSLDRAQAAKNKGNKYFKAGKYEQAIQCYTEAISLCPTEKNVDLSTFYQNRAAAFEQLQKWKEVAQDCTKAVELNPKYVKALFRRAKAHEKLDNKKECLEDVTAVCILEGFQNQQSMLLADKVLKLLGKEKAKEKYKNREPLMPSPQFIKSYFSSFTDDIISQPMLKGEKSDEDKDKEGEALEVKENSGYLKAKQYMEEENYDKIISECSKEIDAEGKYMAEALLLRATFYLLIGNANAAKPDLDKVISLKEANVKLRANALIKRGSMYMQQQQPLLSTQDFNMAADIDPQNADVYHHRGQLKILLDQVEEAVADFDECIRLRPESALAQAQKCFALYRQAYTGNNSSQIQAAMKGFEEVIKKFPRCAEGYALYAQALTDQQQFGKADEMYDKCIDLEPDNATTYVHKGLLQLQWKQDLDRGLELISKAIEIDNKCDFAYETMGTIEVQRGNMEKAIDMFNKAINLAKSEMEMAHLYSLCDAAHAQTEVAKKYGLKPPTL


How the values were obtained:
Conditions in all cases: both partners purified
[1] = target: T1, human Tom70 (residues 108–608); assay: ITC; Orf9b_(Helix) (120 μM) titrated into 15 μM Tom70 or Tom70:Hsp90_(EEVD) complex (15 μM Tom70: 400 μM Hsp90_(EEVD)); 20°C; 20 mM sodium phosphate pH 7, 100 mM NaCl, 2 mM TCEP; 1:1 binding model
[2] = target: T3, Tom70:Hsp90_(EEVD) complex (human, UniProt O94826 108-608, C-terminus not amidated (free carboxyl)); assay: as above
T3 construct: human Tom70, residues 108-608; tyrosine added to aid with quantification; C-terminal residues 724-732 of human Hsp90α; also called Tom70 complexed with Hsp90_(EEVD) peptide; not shown: Avi, N-terminal, cleaved; His6, N-terminal, cleaved

[3] = target: T2, ^19F-labeled Tom70 …; assay: NMR titration; […]) 130 μM, […]) 400 μM, […]; 25°C; […]
[4] = target: T4, human Hsp90α (residues 1–732), full-length (human, UniProt P07900 1-732); assay: ITC; […] (400 μM), […] (400 μM), […] (500 μM) […] (20 μM); 20°C; 20 mM sodium phosphate pH 8, 150 mM NaCl, 2 mM TCEP, 10% glycerol; 1:1 binding model
T4 construct: human Hsp90α, residues 1-732; also called full-length Hsp90; heat shock protein 90; source: E. coli BL21 Star (DE3) pLysS, purified (Ni-INDIGO, TEV cleavage, second Ni-INDIGO, HiPrep Q); not shown: Avi, N-terminal, cleaved; His6, N-terminal, cleaved

Binder	binding result [1]	binding result [2]	binding result [3]	fold by which the inhibitory effect of full-length Orf9b exceeds that of Orf9b_(Helix) [4] [fold]
IILRLGSPLSLNMARKTLNSLEDKAFQLTPIAVQY (SARS-CoV-2 Orf9b residues 44-77, the helical region seen in the Tom70-Orf9b structure; tyrosine added to aid with quantification) [Orf9b_(Helix) peptide]	binds	binds	binds	
Tom70:Orf9b_(Helix) complex (complex, human Tom70, residues 108-608; SARS-CoV-2 Orf9b residues 44-77; tyrosine added to aid with quantification; not shown: Avi, N-terminal, cleaved; His6, N-terminal, cleaved) chain 1: MNSLDRAQAAKNKGNKYFKAGKYEQAIQCYTEAISLCPTEKNVDLSTFYQNRAAAFEQLQKWKEVAQDCTKAVELNPKYVKALFRRAKAHEKLDNKKECLEDVTAVCILEGFQNQQSMLLADKVLKLLGKEKAKEKYKNREPLMPSPQFIKSYFSSFTDDIISQPMLKGEKSDEDKDKEGEALEVKENSGYLKAKQYMEEENYDKIISECSKEIDAEGKYMAEALLLRATFYLLIGNANAAKPDLDKVISLKEANVKLRANALIKRGSMYMQQQQPLLSTQDFNMAADIDPQNADVYHHRGQLKILLDQVEEAVADFDECIRLRPESALAQAQKCFALYRQAYTGNNSSQIQAAMKGFEEVIKKFPRCAEGYALYAQALTDQQQFGKADEMYDKCIDLEPDNATTYVHKGLLQLQWKQDLDRGLELISKAIEIDNKCDFAYETMGTIEVQRGNMEKAIDMFNKAINLAKSEMEMAHLYSLCDAAHAQTEVAKKYGLKPPTL chain 2: IILRLGSPLSLNMARKTLNSLEDKAFQLTPIAVQY				2.4
